One series concerns the target CSP1 (UniProt P60243). The series can be described thus: EMSA. The settings on record: EMSA: 1x LightShift binding buffer, 1 ug poly(dI-dC), 2.5% glycerol, 0.05% NP-40, 5 mM Mn2+, 5 mM Zn2+, 2-4 ug protein, 1 ng probe, 20 ul, 37 C, 30 min; pH not ….
The target in series [1] is T1, ComED58E D58E (Streptococcus pneumoniae D39) (UniProt A0A0H2ZLR3).
T1 sequence: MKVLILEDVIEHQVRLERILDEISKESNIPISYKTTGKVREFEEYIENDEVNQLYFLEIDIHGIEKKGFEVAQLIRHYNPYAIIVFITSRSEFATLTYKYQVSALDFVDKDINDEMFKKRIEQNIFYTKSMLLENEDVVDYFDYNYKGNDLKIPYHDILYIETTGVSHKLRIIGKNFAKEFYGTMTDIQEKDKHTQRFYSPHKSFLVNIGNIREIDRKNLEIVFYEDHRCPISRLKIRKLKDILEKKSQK
Briefly: EMSA. The settings on record: EMSA: 1x LightShift binding buffer, 1 ug poly(dI-dC), 2.5% glycerol, 0.05% NP-40, 5 mM Mn2+, 5 mM Zn2+, 2-4 ug protein, 1 ng probe, 20 ul, 37 C, 30 min; pH not ….

We go through 1 sequence from paper PMC5339220.

In the case of “TACACATCTGCTTCTAAAATATTGTTAGAAAACGATTTGACTGTCCTGATCAATTTGTCATGTTCTTATTTCATTTTACTATATTTTTGGTTCGCGGGAAGTCTACTAAGATACTTAAAGATGCAGATAGTGAAAAAAGGTGTAGACATTACCGTAAAAAAGTGATATAATCGTAAGATGTTCAATGTATAGGTGTTAATCATGAGTAGACGTTTTAA (double strand) [C2 probe (cps promoter)]”, the binding result in the series with CSP1 is listed as “no binding”; in series [1], “binds”.
